This assay concerns the target FZD/LRP. The assay is described as follows: cell-based or functional assay.

Wnt3a, recombinantly produced ligand yielded a TOPFLASH % Wnt Maxima of 100 % Wnt Maxima and a TOPFLASH EC50 of 6 nM.
